Numbered stars: 1 amine (or outer) side, 2 acyl side, 3 side chain; on linkers, the order of the positions; unused ones are H or OH. Square brackets hold non-standard residues; d marks the D form. Side chains are listed from the residue outwards. Ends that are not written are not given here. γGlu = O=C(O)[C@H](CCC(=O)[*:2])N[*:1]; X70 = not defined here; x53 = not defined here; x70 = not defined here; Aib = CC(C)(N)C(=O)O
Tests used:
human GLP-1 receptor = human GLP-1 receptor (human, UniProt P43220 24-463); assay: cell-based or functional assay
human glucagon receptor = human glucagon receptor (human, UniProt P47871 26-477); assay: cell-based or functional assay
human glucagon receptor, sequence (P47871 26-477): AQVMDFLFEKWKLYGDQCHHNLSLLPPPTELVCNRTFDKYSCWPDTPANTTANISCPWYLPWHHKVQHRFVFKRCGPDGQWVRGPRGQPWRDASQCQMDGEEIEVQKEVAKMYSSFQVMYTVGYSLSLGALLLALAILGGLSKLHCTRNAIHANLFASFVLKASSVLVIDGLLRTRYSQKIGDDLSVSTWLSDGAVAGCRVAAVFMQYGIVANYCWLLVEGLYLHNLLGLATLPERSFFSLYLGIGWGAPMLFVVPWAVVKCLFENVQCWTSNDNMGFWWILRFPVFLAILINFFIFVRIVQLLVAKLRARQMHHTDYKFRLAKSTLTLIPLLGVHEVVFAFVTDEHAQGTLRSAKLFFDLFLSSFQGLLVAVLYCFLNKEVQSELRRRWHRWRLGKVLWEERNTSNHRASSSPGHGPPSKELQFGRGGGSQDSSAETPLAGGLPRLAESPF

| Binder | EC50 hGLP-1R (cAMP) (human GLP-1 receptor) [pM] | EC50 hGlucagon-R (cAMP) (human glucagon receptor) [pM] |
| --- | --- | --- |
| H[Aib]QGTFTSDLSKQK([γGlu-X70])DEQRAKDFIEWLKSGGPSSGAPPPS-NH2 (reading uncertain) [SEQ ID NO: 175] | 2.5 | 3.1 |
| H[Aib]QGTFTSDLSKQK([γGlu-x70])DSRRAQLFIEWLKAGGPSSGAPPPS-NH2 (reading uncertain) [SEQ ID NO: 198] | 8.2 | 2.4 |
| H[Aib]QGTFTSDLSKQK([γGlu-X70])DEQRAKEFIEWLKSGGPSSGAPPPS-NH2 (reading uncertain) [SEQ ID NO: 174] | 2.6 | 1.9 |
| HXQGTFTSDLSKQKDSRRAXDFIEWLKNGGPSSGAPPPS (dSer at 2; K(γE-x53) at 14; Aib at 20; C-terminal NH2) [SEQ ID NO: 118] | 15.3 | 4.3 |
| HXQGTFTSDLSKQKDSRRAQDFIEWLKAXGPSSGAPPPS (dSer at 2; K(γE-X70) at 14; dAla at 29; C-terminal NH2) [SEQ ID NO: 161] | 5 | 2.4 |
| HXQGTFTSDLSKQKESRRAQDFIEWLKRXGPSSGAPPPS (dSer at 2; K(γE-x53) at 14; dAla at 29; C-terminal NH2) [SEQ ID NO: 126] | 6.6 | 6.8 |
| HXQGTFTSDLSKQKESRAAXLFIEWLKNGGPSSGAPPPS (dSer at 2; K(γE-x53) at 14; Aib at 20; C-terminal NH2) [SEQ ID NO: 121] | 6.1 | 23.7 |
| HXQGTFTSDLSKQKESRRAQDFIEWLKRGGPSSGAPPPS (dSer at 2; K(γE-x53) at 14; C-terminal NH2) [SEQ ID NO: 127] | 14.7 | 9.4 |
| HXQGTFTSDLSKQKESRAAXLFIEWLKNGGPSSGAPPPS (dSer at 2; K(x53) at 14; Aib at 20; C-terminal NH2) [SEQ ID NO: 122] | 24.9 | 156 |
| HXQGTFTSDLSKQKDSKAAQDFIEWLKAGGPSSGAPPPS (dSer at 2; K(γE-X95) at 14; C-terminal NH2) [SEQ ID NO: 142] | 4.1 | 2.1 |
| HXQGTFTSDLSKQKDSKAAQDFIEWLKAGGPSSGAPPPS (dSer at 2; K(γE-γE-x53) at 14; C-terminal NH2) [SEQ ID NO: 140] | 1.3 | 1.5 |
| HXQGTFTSDLSKQKDSRRAQDFIEWLKSGGPSSGAPPPS (dSer at 2; K(γE-x53) at 14; C-terminal NH2) [SEQ ID NO: 128] | 6.2 | 1.6 |
| HXQGTFTSDLSKQKESRRAXDFIEWLKNGGPSSGAPPPS (dSer at 2; K(x53) at 14; Aib at 20; C-terminal NH2) [SEQ ID NO: 119] | 30.8 | 41.2 |
| HXQGTFTSDLSKQKDSKAAQDFIEWLKSGGPSSGAPPPS (dSer at 2; K(γE-x53) at 14; C-terminal NH2) [SEQ ID NO: 173] | 5.7 | 5.9 |
| HXQGTFTSDLSKQKDSKRAXDFIEWLKAGGPSSGAPPPS (dSer at 2; K(γE-x70) at 14; Aib at 20; C-terminal NH2) [SEQ ID NO: 196] | 7.8 | 1.8 |
| HXQGTFTSDLSKQKESRRAQDFIEWLKSGGPSSGAPPPS (dSer at 2; K(γE-x53) at 14; C-terminal NH2) [SEQ ID NO: 129] | 14.8 | 4.1 |

| Binder | EC50 hGLP-1R (cAMP) (human GLP-1 receptor) [pM] | EC50 hGlucagon-R (cAMP) (human glucagon receptor) [pM] |
| --- | --- | --- |
| HXQGTFTSDLSKQKDSQAAQDFIEWLKRGGPSSGAPPPS (dSer at 2; K(γE-x53) at 14; C-terminal NH2) [SEQ ID NO: 123] | 2.6 | 9.7 |
| HXQGTFTSDLSKQKESXAAQLFIEWLKAGGPSSGAPPPS (dSer at 2; K(GABA-x70) at 14; Aib at 17; C-terminal NH2) [SEQ ID NO: 131] | 9.1 | 24.9 |
| HXQGTFTSDLSKQKESXAAQLFIEWLKAGGPSSGAPPPS (dSer at 2; K(γE-x53) at 14; Aib at 17; C-terminal NH2) [SEQ ID NO: 15] | 6.6 | 176 |
| HXHGTFTSDLSKQKDSKAAQLFIEWLKAXGPSSGAPPPS (dSer at 2; K(γE-X70) at 14; dAla at 29; C-terminal NH2) [SEQ ID NO: 138] | 5.5 | 9.2 |
| HXQGTFTSDLSKQKEEEAAQDFIEWLKAGGPSSGAPPPS (dSer at 2; K(γE-x53) at 14; C-terminal NH2) [SEQ ID NO: 16] | 2.8 | 117 |
| H[Aib]QGTFTSDLSKQK([γGlu-X70])DEQRAKEFIEWLKAGGPSSGAPPPS-NH2 (reading uncertain) [SEQ ID NO: 152] | 3.2 | 2.3 |
| HXQGTFTSDLSKQKDSQAAQDFIEWLKRAGPSSGAPPPS (dSer at 2; K(γE-x53) at 14; C-terminal NH2) [SEQ ID NO: 124] | 3 | 8.4 |
| HXQGTFTSDLSKQKESXAAQDFIEWLKAGGPSSGAPPPS (dSer at 2; K(γE-x53) at 14; Aib at 17; C-terminal NH2) [SEQ ID NO: 14] | 4.6 | 94.7 |
| HXQGTFTSDLSKQKESLAAQDFIEWLKAGGPSSGAPPPS (dSer at 2; K(γE-x53) at 14; C-terminal NH2) [SEQ ID NO: 150] | 6 | 35.5 |
| HXQGTFTSDLSKQKDEQRAKDFIEWLKAXGPSSGAPPPS (Aib at 2; K(γE-x70) at 14; dAla at 29; C-terminal NH2) [SEQ ID NO: 199] | 10.1 | 7.2 |
| HXQGTFTSDLSKQKDEQRAKLFIEWLKAXGPSSGAPPPS (Aib at 2; K(γE-x70) at 14; dAla at 29; C-terminal NH2) [SEQ ID NO: 200] | 4.6 | 4.4 |
| HXQGTFTSDLSKQKDEQAAKLFIEWLKAXGPSSGAPPPS (Aib at 2; K(γE-x76) at 14; dAla at 29; C-terminal NH2) [SEQ ID NO: 201] | 22.7 | 29.6 |
| H[Aib]QGTFTSDLSKQK([γGlu-x53])DSQAAQDFIEWLKAGGPSSGAPPPS-NH2 (reading uncertain) [SEQ ID NO: 155] | 2.5 | 25.1 |
| H[Aib]QGTFTSDLSKQK([γGlu-X70])DSRRAQDFIEWLKAGGPSSGAPPPS-NH2 (reading uncertain) [SEQ ID NO: 162] | 3.1 | 2.4 |
| H[Aib]QGTFTSDLSKQK([γGlu-x53])ESRRAQDFIEWLKNGGPSSGAPPPS-NH2 (reading uncertain) [SEQ ID NO: 117] | 3.8 | 16.5 |
| H[Aib]QGTFTSDLSKQK([γGlu-X70])DSQAAQDFIEWLKAGGPSSGAPPPS-NH2 (reading uncertain) [SEQ ID NO: 156] | 2.9 | 12.5 |
